According to US20240294895A1, “ENZYMATIC COMPOSITIONS FOR CARBOHYDRATE ANTIGEN CLEAVAGE ON DONOR ORGANS, METHODS AND USES ASSOCIATED THEREWITH” (THE UNIVERSITY OF BRITISH COLUMBIA, priority 2018, published 2024):
One block for each molecule: values may come before it.

Legend:
[1] = target: Flavonifractor plautii GalNAcDeacetylase (FpGalNAcDeAc), SEQ ID NO: 2, 4, 5 (Flavonifractor plautii, UniProt P0DTR4); settings: 100 μM EDTA; 50 μM A antigen subtype 1penta-MU, pH 7.4, 37° C.
Method: FpGalNAcDeacetylase was tested against different potential inhibitors in 96-well plate format as a coupled assay. Reaction was performed in 100 μL scale at 37° C. with 50 μM A antigen subtype 1penta-MU and 5 μg/mL FpGalNAcDeacetylase in 100 mM NaH2PO4 PH 7.4 with 10 μg/mL FpGalactosaminidase, 50 μg/mL SpHex, 50 μg/mL AfcA, 50 μg/mL BgaC. As inhibitors EDTA (1, 10, 100 μM), Marimastat (1, 10, 100, 1000 μM), DMSO (2%, 4%), Protease Inhibitor Cocktail EDTA-free (Pierce™) (1×, 2× and 4×) were tested. The Fluorescence (365/435 nm) was monitored continuously for 1 hours using a Synergy H1™ plate reader (BioTek™).

[2] = target: T1, Flavonifractor plautii Galactosaminidase (FpGalNase), full length, SEQ ID NO: 7, 9, 10 (Flavonifractor plautii, UniProt P0DTR5); test: Kinetic parameters of FpGalNase full length (MU or pNP release); assay type: biochemical; settings: versus corresponding GalN-antigen
T1 sequence (P0DTR5 with tags, fused parts or gaps): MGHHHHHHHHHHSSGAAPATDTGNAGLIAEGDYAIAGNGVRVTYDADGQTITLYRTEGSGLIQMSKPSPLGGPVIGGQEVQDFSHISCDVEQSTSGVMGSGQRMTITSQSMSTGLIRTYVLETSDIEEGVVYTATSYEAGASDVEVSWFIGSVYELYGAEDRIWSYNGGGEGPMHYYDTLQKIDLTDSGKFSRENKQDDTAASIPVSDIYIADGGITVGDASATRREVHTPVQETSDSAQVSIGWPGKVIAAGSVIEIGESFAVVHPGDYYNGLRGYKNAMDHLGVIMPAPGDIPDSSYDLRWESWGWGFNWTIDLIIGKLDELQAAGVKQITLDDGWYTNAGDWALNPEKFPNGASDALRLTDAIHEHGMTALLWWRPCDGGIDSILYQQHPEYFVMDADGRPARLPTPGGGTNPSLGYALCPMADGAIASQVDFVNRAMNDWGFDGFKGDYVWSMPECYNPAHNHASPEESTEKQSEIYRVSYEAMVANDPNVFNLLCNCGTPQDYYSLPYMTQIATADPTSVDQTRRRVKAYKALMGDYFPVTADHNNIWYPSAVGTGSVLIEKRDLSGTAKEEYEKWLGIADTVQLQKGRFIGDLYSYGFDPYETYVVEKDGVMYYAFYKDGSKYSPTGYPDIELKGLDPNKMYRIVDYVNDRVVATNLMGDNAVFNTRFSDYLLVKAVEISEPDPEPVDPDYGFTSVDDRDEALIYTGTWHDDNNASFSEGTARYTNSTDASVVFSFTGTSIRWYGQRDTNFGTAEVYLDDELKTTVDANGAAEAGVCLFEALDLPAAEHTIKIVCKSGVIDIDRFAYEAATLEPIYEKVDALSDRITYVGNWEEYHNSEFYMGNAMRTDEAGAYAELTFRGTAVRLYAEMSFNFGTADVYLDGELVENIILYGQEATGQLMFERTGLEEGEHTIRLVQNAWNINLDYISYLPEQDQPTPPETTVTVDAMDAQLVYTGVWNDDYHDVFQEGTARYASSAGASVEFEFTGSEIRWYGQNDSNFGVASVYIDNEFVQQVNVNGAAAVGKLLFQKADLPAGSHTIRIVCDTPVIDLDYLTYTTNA
Method: (§1) All kinetic assays utilizing 4-methylumbelliferone as leaving group were performed through measurement of fluorescence. To avoid measurement errors based on the inner filter effect (Palmier 2007) standard curves were used to validate the linear range of the fluorophore.
(§2) Michaelis-Menten parameter was determined for GalN antigen subtype 1penta-MU and A antigen subtype 1penta-MU in 100 mM NaH2PO4, pH 7.4 at 37° C. Reaction was performed in 100 μl with 3.4 nM FpGalactosaminidase (5.31 nM FpGalNase_truncA) and 0.1 mg/mL SpHex, AfcA, 0.2 mg/mL BgaC and varying concentrations of substrate (5 μM-2 mM). The reactions were run as a series of four with controls (no FpGalactosaminidase) as duplicates. The fluorescence signal (365/435 nm) resulting from MU release by hydrolysis was monitored by Synergy H1™ plate reader [BioTek™] and converted to concentration using MU standard concentration curves determined under identical reaction conditions. Initial rates (μM/s) were determined and plotted in Grafit 7.0™ to determine the kinetic parameters.
kcat/KM parameter was determined for GalN antigen subtype 1/2/4tetra-MU and B antigen subtype 1tetra-MU at pH 7.4 and 37° C. […] Initial rates (μM/s) were determined and plotted in Grafit 7.0™ to determine the kcat/KM (s^−1*mM^−1) parameters. […]

[3] = substrate: CC(=O)N[C@H]1[C@H](Oc2ccc3c(C)cc(=O)oc3c2)O[C@H](CO)[C@@H](O)[C@@H]1O[C@@H]1O[C@H](CO)[C@H](O)[C@H](O[C@H]2O[C@H](CO)[C@H](O)[C@H](O)[C@H]2N)[C@H]1O[C@@H]1O[C@@H](C)[C@@H](O)[C@@H](O)[C@@H]1O; test: as above; assay type: biochemical, Flavonifractor plautii; settings: other: 100 mM NaH2PO4, pH 7.4, 37° C.
Method: as §1, §2
(§3) kcat/KM parameter was determined for GalN antigen subtype 1/2/4tetra-MU and B antigen subtype 1tetra-MU at pH 7.4 and 37° C. Reactions (total volume of 100 μL) were performed in black 96-plate wells and as coupled assays in 100 mM NaH2 PO4 (pH 7.4) with 8.63 nM FpGalactosaminidase, 0.1 mg/mL SpHex, BgaC (BgaA for Subtype 2), AfcA, varying concentrations of substrate (25 μM, 20 μM, 15 μM, 10 μM, 7.5 μM, 5 μM). The reactions were run as a series of four with controls (no FpGalactosaminidase) as duplicates. The fluorescence signal (365/435 nm) resulting from MU release by hydrolysis was monitored by Synergy H1™ plate reader [BioTek™] and converted to concentration using MU standard concentration curves determined under identical reaction conditions. Initial rates (μM/s) were determined and plotted in Grafit 7.0™ to determine the kcat/KM (s^−1*mM^−1) parameters.
(§4) Michaelis-Menten parameters were determined for GalN-α-pNP in clear 96-plate at 37° C. with 863.2 nM FpGalactosaminidase (in 100 mM NaH2PO4, pH 7.4) or 369.9 nM FpGH4 (in 50 mM Tris/HCl, pH 7.4, 100 μM NAD^+, 1 mM MnCl2) with varying concentrations of substrate (10 μM-5 mM) in a volume of 100 μl. The reactions were run as a series of three with two controls (no enzyme). The absorption (at 405 nm) resulting from pNP release by hydrolysis was monitored by Synergy H1™ plate reader [BioTek™] and converted to concentration using p-nitrophenol standard concentration curves determined under identical reaction conditions. Initial rates (μM/s) were determined and plotted in Grafit 7.0™ to determine the kinetic parameters.

[4] = substrate: N[C@H]1[C@@H](Oc2ccc([N+](=O)[O-])cc2)O[C@H](CO)[C@H](O)[C@@H]1O; test: as above; assay type: biochemical, Flavonifractor plautii; settings: other: 100 mM NaH2PO4, pH 7.4, 37° C.
Method: as §1, §2, §3, §4

[5] = substrate: CC(=O)N[C@H]1[C@H](O[C@H]2[C@@H](O)[C@@H](CO)O[C@@H](Oc3ccc4c(C)cc(=O)oc4c3)[C@@H]2O)O[C@H](CO)[C@@H](O)[C@@H]1O[C@@H]1O[C@H](CO)[C@H](O)[C@H](O[C@H]2O[C@H](CO)[C@H](O)[C@H](O)[C@H]2N)[C@H]1O[C@@H]1O[C@@H](C)[C@@H](O)[C@@H](O)[C@@H]1O; test: as above; assay type: biochemical, Flavonifractor plautii; settings: other: 100 mM NaH2PO4, pH 7.4, 37° C.
Method: as §1, §2, §3, §4

[6] = substrate: CC(=O)N[C@H]1[C@H](Oc2ccc3c(C)cc(=O)oc3c2)O[C@H](CO)[C@@H](O)[C@@H]1O[C@@H]1O[C@H](CO)[C@H](O)[C@H](O[C@H]2O[C@H](CO)[C@H](O)[C@H](O)[C@H]2O)[C@H]1O[C@@H]1O[C@@H](C)[C@@H](O)[C@@H](O)[C@@H]1O; test: as above; assay type: biochemical, Flavonifractor plautii; settings: other: 100 mM NaH2PO4, pH 7.4, 37° C.
Method: as §1, §2, §3, §4

[7] = substrate: CC(=O)N[C@H]1[C@H](Oc2ccc3c(C)cc(=O)oc3c2)O[C@H](CO)[C@@H](O[C@@H]2O[C@H](CO)[C@H](O)[C@H](O[C@H]3O[C@H](CO)[C@H](O)[C@H](O)[C@H]3N)[C@H]2O[C@@H]2O[C@@H](C)[C@@H](O)[C@@H](O)[C@@H]2O)[C@@H]1O; test: as above; assay type: biochemical, Flavonifractor plautii; settings: other: 100 mM NaH2PO4, pH 7.4, 37° C.
Method: as §1, §2, §3, §4

[8] = substrate: CC(=O)N[C@H]1[C@H](Oc2ccc3c(C)cc(=O)oc3c2)O[C@H](CO)[C@H](O)[C@@H]1O[C@@H]1O[C@H](CO)[C@H](O)[C@H](O[C@H]2O[C@H](CO)[C@H](O)[C@H](O)[C@H]2N)[C@H]1O[C@@H]1O[C@@H](C)[C@@H](O)[C@@H](O)[C@@H]1O; test: as above; assay type: biochemical, Flavonifractor plautii; settings: other: 100 mM NaH2PO4, pH 7.4, 37° C.
Method: as §1, §2, §3, §4

Sequence of Flavonifractor plautii GalNAcDeacetylase (FpGalNAcDeAc), SEQ ID NO: 2, 4, 5 (P0DTR4 13-772, looked up, natural form): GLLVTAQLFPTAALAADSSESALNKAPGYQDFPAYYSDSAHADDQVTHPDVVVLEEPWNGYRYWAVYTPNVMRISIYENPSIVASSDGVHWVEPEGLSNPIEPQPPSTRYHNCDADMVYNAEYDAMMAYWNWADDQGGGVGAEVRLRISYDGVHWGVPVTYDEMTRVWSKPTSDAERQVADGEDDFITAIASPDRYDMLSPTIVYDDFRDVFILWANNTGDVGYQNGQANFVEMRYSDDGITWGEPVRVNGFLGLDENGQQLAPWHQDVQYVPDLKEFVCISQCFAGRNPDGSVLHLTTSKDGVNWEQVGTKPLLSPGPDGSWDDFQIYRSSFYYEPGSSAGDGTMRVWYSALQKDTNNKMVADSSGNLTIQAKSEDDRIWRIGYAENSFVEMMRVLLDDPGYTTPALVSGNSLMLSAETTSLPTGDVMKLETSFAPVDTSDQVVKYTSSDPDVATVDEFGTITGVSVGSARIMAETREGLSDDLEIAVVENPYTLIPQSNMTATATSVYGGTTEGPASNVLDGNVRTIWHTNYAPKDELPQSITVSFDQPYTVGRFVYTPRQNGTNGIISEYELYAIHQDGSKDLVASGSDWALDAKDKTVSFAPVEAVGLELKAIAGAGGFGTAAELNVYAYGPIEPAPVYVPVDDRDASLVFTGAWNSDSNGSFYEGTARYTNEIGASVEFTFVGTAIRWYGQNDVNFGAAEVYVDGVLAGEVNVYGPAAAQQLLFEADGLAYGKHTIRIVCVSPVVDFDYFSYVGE

Molecule: O=C(O)CN(CCN(CC(=O)O)CC(=O)O)CC(=O)O [EDTA]
effect of treatment on enzyme activity [1]: largely obliterated the enzyme activity

kcat/KM for cleavage of B-antigen, times lower than for the corresponding GalN-antigen [2]: over 2000 times lower
Molecule: CC(=O)N[C@H]1[C@H](Oc2ccc3c(C)cc(=O)oc3c2)O[C@H](CO)[C@@H](O)[C@@H]1O[C@@H]1O[C@H](CO)[C@H](O)[C@H](O[C@H]2O[C@H](CO)[C@H](O)[C@H](O)[C@H]2O)[C@H]1O[C@@H]1O[C@@H](C)[C@@H](O)[C@@H](O)[C@@H]1O [B antigen Type1tetra-MU]

B1: Flavonifractor plautii Galactosaminidase (FpGalNase), full length, SEQ ID NO: 7, 9, 10 (Flavonifractor plautii) (protein)
chain: MGHHHHHHHHHHSSGAAPATDTGNAGLIAEGDYAIAGNGVRVTYDADGQTITLYRTEGSGLIQMSKPSPLGGPVIGGQEVQDFSHISCDVEQSTSGVMGSGQRMTITSQSMSTGLIRTYVLETSDIEEGVVYTATSYEAGASDVEVSWFIGSVYELYGAEDRIWSYNGGGEGPMHYYDTLQKIDLTDSGKFSRENKQDDTAASIPVSDIYIADGGITVGDASATRREVHTPVQETSDSAQVSIGWPGKVIAAGSVIEIGESFAVVHPGDYYNGLRGYKNAMDHLGVIMPAPGDIPDSSYDLRWESWGWGFNWTIDLIIGKLDELQAAGVKQITLDDGWYTNAGDWALNPEKFPNGASDALRLTDAIHEHGMTALLWWRPCDGGIDSILYQQHPEYFVMDADGRPARLPTPGGGTNPSLGYALCPMADGAIASQVDFVNRAMNDWGFDGFKGDYVWSMPECYNPAHNHASPEESTEKQSEIYRVSYEAMVANDPNVFNLLCNCGTPQDYYSLPYMTQIATADPTSVDQTRRRVKAYKALMGDYFPVTADHNNIWYPSAVGTGSVLIEKRDLSGTAKEEYEKWLGIADTVQLQKGRFIGDLYSYGFDPYETYVVEKDGVMYYAFYKDGSKYSPTGYPDIELKGLDPNKMYRIVDYVNDRVVATNLMGDNAVFNTRFSDYLLVKAVEISEPDPEPVDPDYGFTSVDDRDEALIYTGTWHDDNNASFSEGTARYTNSTDASVVFSFTGTSIRWYGQRDTNFGTAEVYLDDELKTTVDANGAAEAGVCLFEALDLPAAEHTIKIVCKSGVIDIDRFAYEAATLEPIYEKVDALSDRITYVGNWEEYHNSEFYMGNAMRTDEAGAYAELTFRGTAVRLYAEMSFNFGTADVYLDGELVENIILYGQEATGQLMFERTGLEEGEHTIRLVQNAWNINLDYISYLPEQDQPTPPETTVTVDAMDAQLVYTGVWNDDYHDVFQEGTARYASSAGASVEFEFTGSEIRWYGQNDSNFGVASVYIDNEFVQQVNVNGAAAVGKLLFQKADLPAGSHTIRIVCDTPVIDLDYLTYTTNA
kcat/Km [3]: 45700 ± 3570 M⁻¹ s⁻¹ | Km [4]: 700 ± 151 µM | kcat [4]: 0.029 s⁻¹ | kcat/Km [4]: 40 M⁻¹ s⁻¹ | Km [5]: 64.5 ± 7.6 µM | kcat [5]: 2.35 s⁻¹ | kcat/Km [5]: 36480 M⁻¹ s⁻¹ | kcat/Km [6]: 20 M⁻¹ s⁻¹ | kcat/Km [7]: 47270 ± 7490 M⁻¹ s⁻¹ | kcat/Km [8]: 30050 ± 2330 M⁻¹ s⁻¹
